± gives the standard error. This sample holds only a part of the variants without activity.
B1: glmS ribozyme (parent)
chain: AUAAAAGCGCCAGAACUACAGAAAUGUAGUUGACGAGGAGGAGGUUUAUCGAAUUUUCGGCGGAUGCCUCCAAA

Legend:
Settings in all cases: with glucosamine-6-phosphate
glucosamine-6-phosphate [1] = variants of: B1; experiment: self-cleavage kobs at 640 uM GlcN6P; higher = faster cleavage; RNA array
Outline: (§1)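 Barcoded glmS ribozyme variants on sequenced MiSeq chips were transcribed in situ by E. coli RNA polymerase and tracked through a hybridised Cy3 probe at 37 °C. Glucosamine-6-phosphate (40 μM to 10 mM) in HEPES/KCl/Mg(OAc)2 buffer was flowed in, and tiles were imaged over ~14 h. Signals were normalised to baseline and to non-cleaving reference variants; per-tile medians were fit to one- or two-exponential decays to give kobs. kcat and KM came from weighted Michaelis–Menten fits across concentrations.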

glucosamine-6-phosphate [2] = variants of: B1; experiment: self-cleavage kobs at 2500 uM GlcN6P; higher = faster cleavage; RNA array
Outline: as §1

glucosamine-6-phosphate [3] = variants of: B1; experiment: self-cleavage kobs at 10000 uM GlcN6P; higher = faster cleavage; RNA array
Outline: as §1

Variant | self-cleavage kobs at 640 uM GlcN6P (glucosamine-6-phosphate [1]) [s⁻¹] | self-cleavage kobs at 2500 uM GlcN6P (glucosamine-6-phosphate [2]) [s⁻¹] | self-cleavage kobs at 10000 uM GlcN6P (glucosamine-6-phosphate [3]) [s⁻¹]
G38U C50G A64G | 6.44e-05 ± 2.9e-05 | 3.85e-05 ± 1.7e-05 | –
C34A U46C A53G G60C C61A | < 1e-05 | < 1e-05 | –
C10U G60A C67A | < 1e-05 | – | –
A14U U46G G60A C71A | < 1e-05 | – | –
A52G U56G | 0.000309 ± 5.9e-05 | 0.000536 ± 0.00011 | 0.0014 ± 0.00025
C11U G29U G37C C70A | 0.000166 ± 5.6e-05 | – | –
A18C G35U U57A | < 1e-05 | – | –
A6G U31G G37U | < 1e-05 | < 1e-05 | –
U46A U47C C70A | 9.01e-05 ± 2.2e-05 | 0.000206 ± 3.7e-05 | –
A39U U46G C50U U54C | < 1e-05 | – | –
C8U A14C A15C | < 1e-05 | – | –
A15U A36C U56G U69A | 7.26e-05 ± 3.4e-05 | – | –
C8G U57G G59A | < 1e-05 | < 1e-05 | –
G32U U55G C71U | 0.00014 ± 3.5e-05 | – | 0.000518 ± 0.00011
U30G A39U U65C | 0.000103 ± 3.8e-05 | – | 0.000419 ± 6.3e-05
U31G G44U U46G C58A | < 1e-05 | – | –
A48U A53C C68G C71G | 9.77e-05 ± 3.4e-05 | – | –
U30C G38U A42U | < 1e-05 | – | < 1e-05
A52G C61G U69A | 0.000109 ± 4.4e-05 | 5.25e-05 ± 2.2e-05 | –
A15G A36U G41U C70U | < 1e-05 | < 1e-05 | –
G38A G40U U65C | < 1e-05 | – | –

Variant | self-cleavage kobs at 640 uM GlcN6P (glucosamine-6-phosphate [1]) [s⁻¹] | self-cleavage kobs at 2500 uM GlcN6P (glucosamine-6-phosphate [2]) [s⁻¹] | self-cleavage kobs at 10000 uM GlcN6P (glucosamine-6-phosphate [3]) [s⁻¹]
C11G G35C A52U | < 1e-05 | – | –
C10U A12C G40A | < 1e-05 | < 1e-05 | –
C10U G38U U57G C61G G66U | 0.000307 ± 9.3e-05 | – | –
C16G C34G A42C G43A | < 1e-05 | – | –
C16A A36U A42G A48G G51U U54G | < 1e-05 | < 1e-05 | –
G41C U46A G60C | < 1e-05 | < 1e-05 | –
A12C U31C A39G | 0.000185 ± 3.9e-05 | 0.00135 ± 0.00023 | 0.00124 ± 0.00028
G9U U45G A52G | < 1e-05 | – | –
G13U C50G C67G | 0.000305 ± 0.00014 | 7.52e-05 ± 1.5e-05 | –
U30G U47A G60U | < 1e-05 | – | –
U46A U49A U56C A64G | < 1e-05 | – | –
A14C U56G C68A | 9.34e-05 ± 3.4e-05 | 8.68e-05 ± 2.2e-05 | –
G32U G41U A52G G60A | < 1e-05 | – | –
G7C G38C A48C | < 1e-05 | < 1e-05 | –
C10A A12C G63C C71G | < 1e-05 | – | –
G40C G66A C70A | 9.02e-05 ± 2.4e-05 | 0.000246 ± 6.6e-05 | 0.000559 ± 0.0001
A39C G51C U56C C70A | < 1e-05 | – | –
G41U G43U U45C A53U C71U | < 1e-05 | < 1e-05 | –
A15G U30A C67A C70U | 0.000654 ± 0.00016 | 9.99e-05 ± 4.6e-05 | 0.00115 ± 0.00026
G41C G63C A64U | < 1e-05 | < 1e-05 | –
G9U C10U C11A | < 1e-05 | – | –

Variant | self-cleavage kobs at 640 uM GlcN6P (glucosamine-6-phosphate [1]) [s⁻¹] | self-cleavage kobs at 2500 uM GlcN6P (glucosamine-6-phosphate [2]) [s⁻¹] | self-cleavage kobs at 10000 uM GlcN6P (glucosamine-6-phosphate [3]) [s⁻¹]
A12U A15G U47G | 0.00207 ± 0.00042 | – | –
U31G G41A U46G | 7.29e-05 ± 2.3e-05 | 0.00021 ± 5.3e-05 | –
G7U A12U G40U U55C C71A | < 1e-05 | < 1e-05 | –
G44A U46C U49C U54G C67G | < 1e-05 | < 1e-05 | –
C11A G32U C70G | 0.000101 ± 4.4e-05 | – | –
G37A U55G C70U | 0.000222 ± 4.2e-05 | 0.000106 ± 3e-05 | –
A48U U55G C71A | 2.8e-05 ± 1.3e-05 | – | –
G35U U45G C61A | < 1e-05 | < 1e-05 | –
C10U C50G C68U C71A | 9.29e-05 ± 2.6e-05 | 0.000111 ± 2.9e-05 | –
G32A A33G C50A | < 1e-05 | – | < 1e-05
G9C A15U G26U G63C | < 1e-05 | – | –
G7A C16U C71A | < 1e-05 | – | –
G9C A12C | < 1e-05 | < 1e-05 | < 1e-05
A33G A36C U54C | < 1e-05 | < 1e-05 | < 1e-05
A39U A42C A53U C58U | < 1e-05 | < 1e-05 | –
A42C A53U U56G | < 1e-05 | – | –
A14U U31C A39C | 7.42e-05 ± 1.4e-05 | 0.000324 ± 6.8e-05 | 0.000464 ± 6e-05
A6U G37A U55G C71G | < 1e-05 | – | < 1e-05
A6C C10A C34G C50U U56A | < 1e-05 | < 1e-05 | –
A14U G43C | < 1e-05 | < 1e-05 | < 1e-05

From the supplement of paper PMC7125110
